Assay results taken from patent publication US20200223938A1 (published 2020).

Target: monomeric FcRn (Sinobiological inc., CT009-H08H) (human;, UniProt P55899 24-297; P61769 21-119)
Experiment: Biacore SPR; pH 6.0

Kd [nM]	Binder
6.99	EFc88 (protein) DKTHTCPPCSAPELLGGPSVFLFPPKPKDTLMISRTPEVTCVVVDVSHEDPEVKFNWYVDGVEVHNAKTKPREELYNSTYRVVSVLTVLHQDWLNGKEYMCKVSNKALPAPIEKTISKAKGQPREPQVYTLPPSREELTKNQVSLTCLVKGFYPSDIAVEWESNGQPENNYKTTPPVLDSDGSFILYSKLTVDKSRWQQGNVFSCSVLHEALHNHYTQKSLSLSPGK
6.68	trastuzumab Fc variant EFc82 (antibody) Fc: DKTHTCPPCQAPELLGGPSVFLYPPEPKDTLMISRTPEVTCVVVDVSHEDPEVKFNWYVDGVEVHNAKTKPREEQYNSTYRVVSVLTVLHQDWLNGKEYKCKVSNKALPAPIEKTISKAKGQPREPQVYTLPPSRDELTKSQVSLTCLVKGFYPSDIAVEWESIGQPENNYKTTPPVLDSDGSFFLYSKLTVDKSRWQQGNVFSCSVLHEALHNHYTQKSLSLSPGK
